Measured values published in patent US20110091994A1, “Methods for Screening Compounds for Treating and/or Preventing an Hepatitis C Virus Infection” (priority 2008, published 2011).
Read-outs that look alike come from different tables or passages of the source.

What was measured:
[1] = biological target: T1, HCV ORFs (Gal4-DB fusions) (Hepatitis C virus genotype 1b, UniProt Q9WMX2); type: binding, HCV genotype 1b, isolate con1; conditions: human protein as prey
T1 construct: expressed in transfected cells; host or cells: Saccharomyces cerevisiae MAV203 (IMAP1) / AH109 (IMAP2)

[2] = test system: HCV ORFs (Gal4-DB fusions); type: binding, HCV genotype 1b, isolate con1; conditions: human protein listed by gene symbol; the value names the HCV protein it interacts with
HCV proteins = biological target: T2, HCV proteins (Hepatitis C virus genotype 1b, UniProt Q9WMX2); test: Validation by Y2H pairwise matrices; type: binding;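 also: yeast two-hybrid pairwise tests of interactions first found in Y2H screens of HCV bait proteins against human cDNA libraries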
T2 construct: expressed in transfected cells

[3] = validation of interaction with HCV protein NS3
[4] = validation of interaction with HCV protein CORE
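For IMAP Y2H IMAP1 (number of IST) in this document: yeast two-hybrid screens using HCV genotype 1b proteins fused to Gal4-DB as baits against prey cDNA libraries from human spleen and foetal brain, IMAP1 via transformation and IMAP2 via mating.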
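For Interaction with viral protein in this document: yeast two-hybrid screens using HCV genotype 1b proteins fused to Gal4-DB as baits against prey cDNA libraries from human spleen and foetal brain, IMAP1 via transformation and IMAP2 via mating.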

Molecule | IMAP Y2H IMAP1 (number of IST) ([1]; HCV protein NS3 as bait) | Interaction with viral protein [2] | Y2H matrices (HCV proteins; [3]) | IMAP Y2H IMAP1 (number of IST) ([1]; HCV protein CORE as bait) | Y2H matrices (HCV proteins; [4])
BCAN (protein, UniProt Q96GW7 23-911, looked up) Brevican core protein: DVLEGDSSEDRAFRVRIAGDAPLQGVLGGALTIPCHVHYLRPPPSRRAVLGSPRVKWTFLSRGREAEVLVARGVRVKVNEAYRFRVALPAYPASLTDVSLALSELRPNDSGIYRCEVQHGIDDSSDAVEVKVKGVVFLYREGSARYAFSFSGAQEACARIGAHIATPEQLYAAYLGGYEQCDAGWLSDQTVRYPIQTPREACYGDMDGFPGVRNYGVVDPDDLYDVYCYAEDLNGELFLGDPPEKLTLEEARAYCQERGAEIATTGQLYAAWDGGLDHCSPGWLADGSVRYPIVTPSQRCGGGLPGVKTLFLFPNQTGFPNKHSRFNVYCFRDSAQPSAIPEASNPASNPASDGLEAIVTVTETLEELQLPQEATESESRGAIYSIPIMEDGGGGSSTPEDPAEAPRTLLEFETQSMVPPTGFSEEEGKALEEEEKYEDEEEKEEEEEEEEVEDEALWAWPSELSSPGPEASLPTEPAAQEESLSQAPARAVLQPGASPLPDGESEASRPPRVHGPPTETLPTPRERNLASPSPSTLVEAREVGEATGGPELSGVPRGESEETGSSEGAPSLLPATRAPEGTRELEAPSEDNSGRTAPAGTSVQAQPVLPTDSASRGGVAVVPASGDCVPSPCHNGGTCLEEEEGVRCLCLPGYGGDLCDVGLRFCNPGWDAFQGACYKHFSTRRSWEEAETQCRMYGAHLASISTPEEQDFINNRYREYQWIGLNDRTIEGDFLWSDGVPLLYENWNPGQPDSYFLSGENCVVMVWHDQGQWSDVPCNYHLSYTCKMGLVSCGPPPELPLAQVFGRPRLRYEVDTVLRYRCREGLAQRNLPLIRCQENGRWEAPQISCVPRRPARALHPEEDPEGRQGRLLGRWKALLIPPSSPMPGP | 2 | NS3 | + | – | –
C1orf94 (protein, UniProt Q6P1W5 1-598, looked up) Uncharacterized protein …: MRGGGGCVLALGGQRGFQKERRRMASGNGLPSSSALVAKGPCALGPFPRYIWIHQDTPQDSLDKTCHEIWKRVQGLPEASQPWTSMEQLSVPVVGTLRGNELSFQEEALELSSGKDEISLLVEQEFLSLTKEHSILVEESSGELEVPGSSPEGTRELAPCILAPPLVAGSNERPRASIIVGDKLLKQKVAMPVISSRQDCDSATSTVTDILCAAEVKSSKGTEDRGRILGDSNLQVSKLLSQFPLKSTETSKVPDNKNVLDKTRVTKDFLQDNLFSGPGPKEPTGLSPFLLLPPRPPPARPDKLPELPAQKRQLPVFAKICSKPKADPAVERHHLMEWSPGTKEPKKGQGSLFLSQWPQSQKDACGEEGCCDAVGTASLTLPPKKPTCPAEKNLLYEFLGATKNPSGQPRLRNKVEVDGPELKFNAPVTVADKNNPKYTGNVFTPHFPTAMTSATLNQPLWLNLNYPPPPVFTNHSTFLQYQGLYPQQAARMPYQQALHPQLGCYSQQVMPYNPQQMGQQIFRSSYTPLLSYIPFVQPNYPYPQRTPPKMSANPRDPPLMAGDGPQYLFPQGYGFGSTSGGPLMHSPYFSSSGNGINF | 1 | NS3 | + | – | –
ARHGEF6 (protein, UniProt Q15052 1-776, looked up) Rho guanine nucleotide …: MNPEEQIVTWLISLGVLESPKKTICDPEEFLKSSLKNGVVLCKLINRLMPGSVEKFCLDPQTEADCINNINDFLKGCATLQVEIFDPDDLYSGVNFSKVLSTLLAVNKATEDQLSERPCGRSSSLSAANTSQTNPQGAVSSTVSGLQRQSKTVEMTENGSHQLIVKARFNFKQTNEDELSVCKGDIIYVTRVEEGGWWEGTLNGRTGWFPSNYVREIKSSERPLSPKAVKGFETAPLTKNYYTVVLQNILDTEKEYAKELQSLLVTYLRPLQSNNNLSTVEVTSLLGNFEEVCTFQQTLCQALEECSKFPENQHKVGGCLLSLMPHFKSMYLAYCANHPSAVNVLTQHSDELEQFMENQGASSPGILILTTNLSKPFMRLEKYVTLLQELERHMEDTHPDHQDILKAIVAFKTLMGQCQDLRKRKQLELQILSEPIQAWEGEDIKNLGNVIFMSQVMVQYGACEEKEERYLMLFSNVLIMLSASPRMSGFIYQGKIPIAGTVVTRLDEIEGNDCTFEITGNTVERIVVHCNNNQDFQEWLEQLNRLIRGPASCSSLSKTSSSSCSAHSSFSSTGQPRGPLEPPQIIKPWSLSCLRPAPPLRPSAALGYKERMSYILKESSKSPKTMKKFLHKRKTERKPSEEEYVIRKSTAALEEDAQILKVIEAYCTSANFQQGHGSSTRKDSIPQVLLPEEEKLIIEETRSNGQTIMEEKSLVDTVYALKDEVRELKQENKRMKQCLEEELKSRRDLEKLVRRLLKQTDECIRGESSSKTSILP | 1 | NS3 | + | – | –
BCAR1 (protein, UniProt P56945 1-870, looked up) Breast cancer anti-estrogen …: MNHLNVLAKALYDNVAESPDELSFRKGDIMTVLEQDTQGLDGWWLCSLHGRQGIVPGNRLKILVGMYDKKPAGPGPGPPATPAQPQPGLHAPAPPASQYTPMLPNTYQPQPDSVYLVPTPSKAQQGLYQVPGPSPQFQSPPAKQTSTFSKQTPHHPFPSPATDLYQVPPGPGGPAQDIYQVPPSAGMGHDIYQVPPSMDTRSWEGTKPPAKVVVPTRVGQGYVYEAAQPEQDEYDIPRHLLAPGPQDIYDVPPVRGLLPSQYGQEVYDTPPMAVKGPNGRDPLLEVYDVPPSVEKGLPPSNHHAVYDVPPSVSKDVPDGPLLREETYDVPPAFAKAKPFDPARTPLVLAAPPPDSPPAEDVYDVPPPAPDLYDVPPGLRRPGPGTLYDVPRERVLPPEVADGGVVDSGVYAVPPPAEREAPAEGKRLSASSTGSTRSSQSASSLEVAGPGREPLELEVAVEALARLQQGVSATVAHLLDLAGSAGATGSWRSPSEPQEPLVQDLQAAVAAVQSAVHELLEFARSAVGNAAHTSDRALHAKLSRQLQKMEDVHQTLVAHGQALDAGRGGSGATLEDLDRLVACSRAVPEDAKQLASFLHGNASLLFRRTKATAPGPEGGGTLHPNPTDKTSSIQSRPLPSPPKFTSQDSPDGQYENSEGGWMEDYDYVHLQGKEEFEKTQKELLEKGSITRQGKSQLELQQLKQFERLEQEVSRPIDHDLANWTPAQPLAPGRTGGLGPSDRQLLLFYLEQCEANLTTLTNAVDAFFTAVATNQPPKIFVAHSKFVILSAHKLVFIGDTLSRQAKAADVRSQVTHYSNLLCDLLRGIVATTKAAALQYPSPSAAQDMVERVKELGHSTQQFRRVLGQLAAA | – | CORE | – | 1 | +
ARS2 (protein, UniProt Q9BXP5 2-876, looked up) Serrate RNA effector molecule …: GDSDDEYDRRRRDKFRRERSDYDRSRERDERRRGDDWNDREWDRGRERRSRGEYRDYDRNRRERFSPPRHELSPPQKRMRRDWDEHSSDPYHSGYEMPYAGGGGGPTYGPPQPWGHPDVHIMQHHVLPIQARLGSIAEIDLGVPPPVMKTFKEFLLSLDDSVDETEAVKRYNDYKLDFRRQQMQDFFLAHKDEEWFRSKYHPDEVGKRRQEARGALQNRLRVFLSLMETGWFDNLLLDIDKADAIVKMLDAAVIKMEGGTENDLRILEQEEEEEQAGKPGEPSKKEEGRAGAGLGDGERKTNDKDEKKEDGKQAENDSSNDDKTKKSEGDGDKEEKKEDSEKEAKKSSKKRNRKHSGDDSFDEGSVSESESESESGQAEEEKEEAEEALKEKEKPKEEEWEKPKDAAGLECKPRPLHKTCSLFMRNIAPNISRAEIISLCKRYPGFMRVALSEPQPERRFFRRGWVTFDRSVNIKEICWNLQNIRLRECELSPGVNRDLTRRVRNINGITQHKQIVRNDIKLAAKLIHTLDDRTQLWASEPGTPPLPTSLPSQNPILKNITDYLIEEVSAEEEELLGSSGGAPPEEPPKEGNPAEINVERDEKLIKVLDKLLLYLRIVHSLDYYNTCEYPNEDEMPNRCGIIHVRGPMPPNRISHGEVLEWQKTFEEKLTPLLSVRESLSEEEAQKMGRKDPEQEVEKFVTSNTQELGKDKWLCPLSGKKFKGPEFVRKHIFNKHAEKIEEVKKEVAFFNNFLTDAKRPALPEIKPAQPPGPAQILPPGLTPGLPYPHQTPQGLMPYGQPRPPILGYGAGAVRPAVPTGGPPYPHAPYGAGRGNYDAFRGQGGYPGKPRNRMVRGDPRAIVEYRDLDAPDDVDFF | 4 | NS3 | + | – | –
CD68 (protein, UniProt P34810 22-354, looked up) Macrosialin: NDCPHKKSATLLPSFTVTPTVTESTGTTSHRTTKSHKTTTHRTTTTGTTSHGPTTATHNPTTTSHGNVTVHPTSNSTATSQGPSTATHSPATTSHGNATVHPTSNSTATSPGFTSSAHPEPPPPSPSPSPTSKETIGDYTWTNGSQPCVHLQAQIQIRVMYTTQGGGEAWGISVLNPNKTKVQGSCEGAHPHLLLSFPYGHLSFGFMQDLQQKVVYLSYMAVEYNVSFPHAAQWTFSAQNASLRDLQAPLGQSFSCSNSSIILSPAVHLDLLSLRLQAAQLPHTGVFGQSFSCPSDRSILLPLIIGLILLGLLALVLIAFCIIRRRPSAYQAL | – | CORE | – | 1 | +
C12orf41 (protein, UniProt Q9H9L4 1-492, looked up) KAT8 regulatory NSL complex …: MNRIRIHVLPTNRGRITPVPRSQEPLSCAFTHRPCSHPRLEGQEFCIKHILEDKNAPFKQCSYISTKNGKRCPNAAPKPEKKDGVSFCAEHVRRNALALHAQMKKTNPGPVGETLLCQLSSYAKTELGSQTPESSRSEASRILDEDSWSDGEQEPITVDQTWRGDPDSEADSIDSDQEDPLKHAGVYTAEEVALIMREKLIRLQSLYIDQFKRLQHLLKEKKRRYLHNRKVEHEALGSSLLTGPEGLLAKERENLKRLKCLRRYRQRYGVEALLHRQLKERRMLATDGAAQQAHTTRSSQRCLAFVDDVRCSNQSLPMTRHCLTHICQDTNQVLFKCCQGSEEVPCNKPVPVSLSEDPCCPLHFQLPPQMYKPEQVLSVPDDLEAGPMDLYLSAAELQPTESLPLEFSDDLDVVGDGMQCPPSPLLFDPSLTLEDHLVKEIAEDPVDILGQMQMAGDGCRSQGSRNSEKASAPLSQSGLATANGKPEPTSIS | 1 | NS3 | + | – | –
